Measurements taken from patent US20090304581A1.

Target: CD20 on Daudi cells (human) (UniProt P11836)
Assay: live-cell radioimmunoreactivity assay on Daudi cells, cell pellet cpm over total cpm

UniProt P11836, sequence (P11836 whole entry): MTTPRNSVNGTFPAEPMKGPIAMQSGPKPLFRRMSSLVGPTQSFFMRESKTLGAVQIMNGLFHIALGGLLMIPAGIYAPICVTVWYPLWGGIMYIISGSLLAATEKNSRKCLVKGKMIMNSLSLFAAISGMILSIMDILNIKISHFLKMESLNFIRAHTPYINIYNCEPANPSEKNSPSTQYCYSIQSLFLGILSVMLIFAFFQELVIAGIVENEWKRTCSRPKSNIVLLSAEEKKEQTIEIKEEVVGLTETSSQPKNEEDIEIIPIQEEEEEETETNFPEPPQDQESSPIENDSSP

maximum binding (immunoreactive fraction): 29%
Substance: SWNT-rituximab-111In*DOTA (antibody)
